Data on one molecule can be found in patent publication KR20220082776A (dated 2022).

For the experiment, the target named is T1, 재조합 인간 TIGIT-His 단백질 (recombinant human TIGIT-His protein) (human, UniProt Q495A1 22-141).
T1 construct: All are treated here as one molecule; also called TIGIT-His(Sino); 항원; not shown: His tag
T1 sequence (looked up): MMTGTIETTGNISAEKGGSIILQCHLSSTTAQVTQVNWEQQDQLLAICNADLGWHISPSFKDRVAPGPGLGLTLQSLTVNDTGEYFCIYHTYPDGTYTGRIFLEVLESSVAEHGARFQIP
Description: ELISA, plate coated with recombinant human TIGIT-His, anti-hIgG-HRP detection.

B1: chimeric-후보항체 clone 19D (antibody, V domains shown)
VH: EVQLQQSGPELVKPGASVKMSCKASGYTFSNYVMHWVKQKPGQGLEWIGYINPYNDGTKYNEKFKGKATLTSDRSSSTAYMELSSLTSEDSAVYYCARWRVNYYFDYWGQGTTLTVSS
VL: QIVLSQSPAILSASPGEKVTMTCRASSSVNYMHWYQQKPGSSPKAWISVTSNLASGVPARFSGSGSGTSYSLTISRVEAEDAATYYCQQWSSNPPWTFGGGTKLEIK
notes: Produced in Expi293; also called chimeric 19D
Consider B1, for which the binding result was “binds”.
